Laboratory results as given in EP3904368A2.

Target: Acetylcholine receptor on AchR-overexpressed TE671 cells
Assay: cell-based or functional assay

Synake (peptide) gave an IC50 value for AchR (inhibition of AchR action, TE671 cells) of 75 µM.
